Results taken from patent publication US20090018099.

Legend:
[1] = target: recombinant GST-Flag-CERT(1-138) wild type fusion protein, produced in E. coli [GST: P08515]
[2] = target: recombinant GST-Flag-CERT-S132A(1-138) fusion protein, produced in E. coli [GST: P08515]

B1: purified PKD1 (protein)
chain: MSAPPVLRPPSPLLPVAAAAAAAAAALVPGSGPGPAPFLAPVAAPVGGISFHLQIGLSREPVLLLQDSSGDYSLAHVREMACSIVDQKFPECGFYGMYDKILLFRHDPTSENILQLVKAASDIQEGDLIEVVLSASATFEDFQIRPHALFVHSYRAPAFCDHCGEMLWGLVRQGLKCEGCGLNYHKRCAFKIPNNCSGVRRRRLSNVSLTGVSTIRTSSAELSTSAPDEPLLQKSPSESFIGREKRSNSQSYIGRPIHLDKILMSKVKVPHTFVIHSYTRPTVCQYCKKLLKGLFRQGLQCKDCRFNCHKRCAPKVPNNCLGEVTINGDLLSPGAESDVVMEEGSDDNDSERNSGLMDDMEEAMVQDAEMAMAECQNDSGEMQDPDPDHEDANRTISPSTSNNIPLMRVVQSVKHTKRKSSTVMKEGWMVHYTSKDTLRKRHYWRLDSKCITLFQNDTGSRYYKEIPLSEILSLEPVKTSALIPNGANPHCFEITTANVVYYVGENVVNPSSPSPNNSVLTSGVGADVARMWEIAIQHALMPVIPKGSSVGTGTNLHRDISVSISVSNCQIQENVDISTVYQIFPDEVLGSGQFGIVYGGKHRKTGRDVAIKIIDKLRFPTKQESQLRNEVAILQNLHHPGVVNLECMFETPERVFVVMEKLHGDMLEMILSSEKGRLPEHITKFLITQILVALRHLHFKNIVHCDLKPENVLLASADPFPQVKLCDFGFARIIGEKSFRRSVVGTPAYLAPEVLRNKGYNRSLDMWSVGVIIYVSLSGTFPFNEDEDIHDQIQNAAFMYPPNPWKEISHEAIDLINNLLQVKMRKRYSVDKTLSHPWLQDYQTWLDLRELECKIGERYITHESDDLRWEKYAGEQGLQYPTHLINPSASHSDTPETEETEMKALGERVSIL
incorporation of radioactivity (in vitro kinase assay with [gamma-32P]-ATP, PhosphoImager) [1]: incorporation of radioactivity is detected | incorporation of radioactivity (in vitro kinase assay with [gamma-32P]-ATP, PhosphoImager) [2]: This is significantly impaired in the case of the CERT-S132A fusion protein
